Test [1] deals with human MET (exon14 skip mutation) on NCI-H596 cells (human) (UniProt P08581). The experiment in a line: cell-based or functional assay.
Test [2] addresses MET (c-Met, hepatocyte growth factor receptor) on cells (human) (UniProt P08581).
The target is the same in test [3]. The source holds these as a separate data set.

Relative Cell Growth (n = 3), NCI-H596 cells in soft agar, 100 ng/mL HGF, two weeks (normalized to control), IC50 (read off the curve); blocking of HGF-dependent SRE-driven luciferase signal in HEK293T cells and IC50 (read off the curve); blocking of HGF-induced SRE-luciferase signal in HEK293/SRE-Luc cells data for two substances are collected here from US20220040319A1, “METHODS OF TREATING OCULAR CANCER USING ANTI-MET ANTIBODIES AND BISPECIFIC ANTIGEN BINDING MOLECULES THAT BIND MET” (Regeneron Pharmaceuticals, Inc., priority 2019, published 2022).

Sequence of MET (c-Met, hepatocyte growth factor receptor) on cells (human) (P08581 25-1390 limits assumed, form in doubt): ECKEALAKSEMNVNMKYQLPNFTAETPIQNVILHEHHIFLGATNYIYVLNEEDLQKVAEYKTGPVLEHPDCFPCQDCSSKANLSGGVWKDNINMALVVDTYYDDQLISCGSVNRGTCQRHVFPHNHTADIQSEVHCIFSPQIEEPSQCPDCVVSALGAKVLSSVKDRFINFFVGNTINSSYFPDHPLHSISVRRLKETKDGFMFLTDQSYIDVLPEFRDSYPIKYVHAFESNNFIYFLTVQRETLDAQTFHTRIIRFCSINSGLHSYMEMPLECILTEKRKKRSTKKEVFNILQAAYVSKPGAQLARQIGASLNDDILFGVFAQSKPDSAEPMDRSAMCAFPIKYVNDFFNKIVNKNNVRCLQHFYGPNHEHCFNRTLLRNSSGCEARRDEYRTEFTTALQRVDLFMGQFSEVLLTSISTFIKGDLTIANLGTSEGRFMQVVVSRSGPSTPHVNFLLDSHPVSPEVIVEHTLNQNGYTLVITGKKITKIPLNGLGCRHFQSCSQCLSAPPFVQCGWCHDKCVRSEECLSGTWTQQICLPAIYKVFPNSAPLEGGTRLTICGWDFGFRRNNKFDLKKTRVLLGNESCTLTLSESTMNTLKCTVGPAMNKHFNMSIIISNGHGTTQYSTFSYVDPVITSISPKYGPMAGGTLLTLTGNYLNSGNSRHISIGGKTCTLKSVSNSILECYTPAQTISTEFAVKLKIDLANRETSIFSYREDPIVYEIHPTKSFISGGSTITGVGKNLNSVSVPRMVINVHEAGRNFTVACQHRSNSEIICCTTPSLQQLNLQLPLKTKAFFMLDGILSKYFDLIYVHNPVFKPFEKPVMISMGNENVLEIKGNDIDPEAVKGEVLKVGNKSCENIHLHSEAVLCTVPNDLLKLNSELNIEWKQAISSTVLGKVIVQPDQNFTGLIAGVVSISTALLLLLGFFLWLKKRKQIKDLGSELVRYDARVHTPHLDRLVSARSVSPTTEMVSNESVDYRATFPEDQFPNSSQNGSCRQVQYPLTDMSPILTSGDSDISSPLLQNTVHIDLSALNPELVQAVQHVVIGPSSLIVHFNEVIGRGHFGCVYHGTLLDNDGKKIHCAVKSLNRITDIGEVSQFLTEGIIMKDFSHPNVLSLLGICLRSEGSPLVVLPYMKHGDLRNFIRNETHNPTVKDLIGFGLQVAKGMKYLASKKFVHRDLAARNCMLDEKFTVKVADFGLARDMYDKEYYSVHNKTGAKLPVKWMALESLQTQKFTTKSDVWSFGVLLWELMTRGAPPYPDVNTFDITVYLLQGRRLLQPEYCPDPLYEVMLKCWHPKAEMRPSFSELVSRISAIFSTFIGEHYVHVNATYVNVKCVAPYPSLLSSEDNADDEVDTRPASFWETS
Sequence of human MET (exon14 skip mutation) on NCI-H596 cells (human) (P08581 25-1390, change not shown): as the sequence (P08581 25-1390 limits assumed, form in doubt) above

As for “hepatocyte growth factor (from UniProt P14210 32-728) (ligand)”, the Relative Cell Growth (n = 3), NCI-H596 cells in soft agar, 100 ng/mL HGF, two weeks (normalized to control) in test [1] was found to be 7.88.

For “monovalent anti-MET antibody (made with the heavy and light chain variable sequences of MetMab)”, the IC50 (read off the curve); blocking of HGF-dependent SRE-driven luciferase signal in HEK293T cells in test [2] was 0.4 nM. In test [3], this substance registered an IC50 (read off the curve); blocking of HGF-induced SRE-luciferase signal in HEK293/SRE-Luc cells of 0.06 nM.
